PMC3511531, “Structural Requirements for the Procoagulant Activity of Nucleic Acids”

Target: high molecular weight kininogen (single-chain) (UniProt P01042 19-644)
Assay: microtiter plate binding assay (streptavidin-peroxidase); Proteins coated at 10 ug/mL in 100 mM sodium carbonate pH 9.5 (4 C, 20 h); blocked with TBS + 3% BSA; biotinylated DNA 0.31-50 ug/mL, 22 C, 2 h; TBS washes; binding buffer composition and pH not stated
Conditions: protein: commercial; hairpin, blunt-ended

Sequence of high molecular weight kininogen (single-chain) (P01042 19-644): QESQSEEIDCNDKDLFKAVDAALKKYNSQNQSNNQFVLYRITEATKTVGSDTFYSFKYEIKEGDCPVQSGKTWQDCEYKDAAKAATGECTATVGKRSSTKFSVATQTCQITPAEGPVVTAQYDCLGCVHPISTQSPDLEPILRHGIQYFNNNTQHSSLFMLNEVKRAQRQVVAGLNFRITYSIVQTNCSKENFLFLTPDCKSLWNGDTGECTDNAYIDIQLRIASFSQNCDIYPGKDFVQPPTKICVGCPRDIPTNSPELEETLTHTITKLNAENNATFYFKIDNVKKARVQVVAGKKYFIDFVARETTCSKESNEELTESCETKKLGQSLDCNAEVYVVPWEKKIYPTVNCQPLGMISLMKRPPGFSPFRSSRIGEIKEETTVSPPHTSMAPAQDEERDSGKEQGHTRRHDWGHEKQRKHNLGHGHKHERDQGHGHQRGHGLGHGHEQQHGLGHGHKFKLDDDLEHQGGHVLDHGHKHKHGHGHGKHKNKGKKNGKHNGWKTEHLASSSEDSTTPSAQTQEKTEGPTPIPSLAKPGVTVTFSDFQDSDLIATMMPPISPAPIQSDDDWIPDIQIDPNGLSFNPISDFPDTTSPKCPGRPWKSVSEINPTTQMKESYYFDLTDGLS

B1: 21mer-H1 DNA (structured_DNA)
DNA: GGGAATGGGTATTCCCATCCC
  Kd: 1820 ± 230 nM
